Substitutions are numbered along the chain they refer to. Names and notes keep the numbering of the source.
B1: wild-type GAS57 (Spy0416), recombinant, purified from E. coli (protein)
chain 1: ADELSTMSEPTITNHAQQQAQHLTNTELSSAESKSQDTSQITLKTNREKEQSQDLVSEPTTTELADTDAASMANTGSDATQKSASLPPVNTDVHDWVKTKGAWDKGYKGQGKVVAVIDTGIDPAHQSMRISDVSTAKVKSKEDMLARQKAAGINYGSWINDKVVFAHNYVENSDNIKENQFEDFDEDWENFEFDAEAEPKAIKKHKIYRPQ
chain 2: STQAPKETVIKTEETDGSHDIDWTQTDDDTKYESHGMHVTGIVAGNSKEAAATGERFLGIAPEAQVMFMRVFANDIMGSAESLFIKAIEDAVALGADVINLSLGTANGAQLSGSKPLMEAIEKAKKAGVSVVVAAGNERVYGSDHDDPLATNPDYGLVGSPSTGRTPTSVAAINSKWVIQRLMTVKELENRADLNHGKAIYSESVDFKDIKDSLGYDKSHQFAYVKESTDAGYNAQDVKGKIALIERDPNKTYDEMIALAKKHGALGVLIFNNKPGQSNRSMRLTANGMGIPSAFISHEFGKAMSQLNGNGTGSLEFDSVVSKAPSQKGNEMNHFSNWGLTSDGYLKPDITAPGGDIYSTYNDNHYGSQTGTSMASPQIAGASLLVKQYLEKTQPNLPKEKIADIVKNLLMSNAQIHVNPETKTTTSPRQQGAGLLNIDGAVTSGLYVTGKDNYGSISLGNITDTMTFDVTVHNLSNKDKTLRYDTELLTDHVDPQKGRFTLTSHSLKTYQGGEVTVPANGKVTVRVTMDVSQFTKELTKQMPNGYYLEGFVRFRDSQDDQLNRVNIPFVGFKGQFENLAVAEESIYRLKSQGKTGFYFDESGPKDDIYVGKHFTGLVTLGSETNVSTKTISDNGLHTLGTFKNADGKFILEKNAQGNPVLAISPNGDNNQDFAAFKGVFLRKYQGLKASVYHASDKEHKNPLWVSPESFKGDKNFNSDIRFAKSTTLLGTAFSGKSLTGAELPDGHYHYVVSYYPDVVGAKRQEMTFDMILDRQKPVLSQATFDPETNRFKPEPLKDRGLAGVRKDSVFYLERKDNKPYTVTINDSYKYVSVEDNKTFVERQADGSFILPLDKAKLGDFYYMVEDFAGNVAIAKLGDHLPQTLGKTPIKLKLTDGNYQTKETLKDNLEMTQSDTGLVTNQAQLAVVHRNQPQSQLTKMNQDFFISPNEDGNKDFVAFKGLKNNVYNDLTVNVYAKDDHQKQTPIWSSQAGASVSAIESTAWYGITARGSKVMPGDYQYVVTYRDEHGKEHQKQYTISVNDKKPMITQGRFDTINGVDHFTPDKTKALDSSGIVREEVFYLAKKNGRKFDVTEGKDGITVSDNKVYIPKNPDGSYTISKRDGVTLSDYYYLVEDRAGNVSFATLRDLKAVGKDKAVVNFGLDLPVPEDKQIVNFTYLVRDADGKPIENLEYYNNSGNSLILPYGKYTVELLTYDTNAAKLESDKIVSFTLSADNNFQQVTFKITMLATSQITAHFDHLLPEGSRVSLKTAQDQLIPLEQSLYVPKAYGKTVQEGTYEVVVSLPKGYRIEGNTKVNTLPNEVHELSLRLVKVGDASDSTGDHKVMSKNNSQALTASATPT
B2: GAS57 mutant D151A, His-tagged (protein)
chain: ADELSTMSEPTITNHAQQQAQHLTNTELSSAESKSQDTSQITLKTNREKEQSQDLVSEPTTTELADTDAASMANTGSDATQKSASLPPVNTDVHDWVKTKGAWDKGYKGQGKVVAVIATGIDPAHQSMRISDVSTAKVKSKEDMLARQKAAGINYGSWINDKVVFAHNYVENSDNIKENQFEDFDEDWENFEFDAEAEPKAIKKHKIYRPQSTQAPKETVIKTEETDGSHDIDWTQTDDDTKYESHGMHVTGIVAGNSKEAAATGERFLGIAPEAQVMFMRVFANDIMGSAESLFIKAIEDAVALGADVINLSLGTANGAQLSGSKPLMEAIEKAKKAGVSVVVAAGNERVYGSDHDDPLATNPDYGLVGSPSTGRTPTSVAAINSKWVIQRLMTVKELENRADLNHGKAIYSESVDFKDIKDSLGYDKSHQFAYVKESTDAGYNAQDVKGKIALIERDPNKTYDEMIALAKKHGALGVLIFNNKPGQSNRSMRLTANGMGIPSAFISHEFGKAMSQLNGNGTGSLEFDSVVSKAPSQKGNEMNHFSNWGLTSDGYLKPDITAPGGDIYSTYNDNHYGSQTGTSMASPQIAGASLLVKQYLEKTQPNLPKEKIADIVKNLLMSNAQIHVNPETKTTTSPRQQGAGLLNIDGAVTSGLYVTGKDNYGSISLGNITDTMTFDVTVHNLSNKDKTLRYDTELLTDHVDPQKGRFTLTSHSLKTYQGGEVTVPANGKVTVRVTMDVSQFTKELTKQMPNGYYLEGFVRFRDSQDDQLNRVNIPFVGFKGQFENLAVAEESIYRLKSQGKTGFYFDESGPKDDIYVGKHFTGLVTLGSETNVSTKTISDNGLHTLGTFKNADGKFILEKNAQGNPVLAISPNGDNNQDFAAFKGVFLRKYQGLKASVYHASDKEHKNPLWVSPESFKGDKNFNSDIRFAKSTTLLGTAFSGKSLTGAELPDGHYHYVVSYYPDVVGAKRQEMTFDMILDRQKPVLSQATFDPETNRFKPEPLKDRGLAGVRKDSVFYLERKDNKPYTVTINDSYKYVSVEDNKTFVERQADGSFILPLDKAKLGDFYYMVEDFAGNVAIAKLGDHLPQTLGKTPIKLKLTDGNYQTKETLKDNLEMTQSDTGLVTNQAQLAVVHRNQPQSQLTKMNQDFFISPNEDGNKDFVAFKGLKNNVYNDLTVNVYAKDDHQKQTPIWSSQAGASVSAIESTAWYGITARGSKVMPGDYQYVVTYRDEHGKEHQKQYTISVNDKKPMITQGRFDTINGVDHFTPDKTKALDSSGIVREEVFYLAKKNGRKFDVTEGKDGITVSDNKVYIPKNPDGSYTISKRDGVTLSDYYYLVEDRAGNVSFATLRDLKAVGKDKAVVNFGLDLPVPEDKQIVNFTYLVRDADGKPIENLEYYNNSGNSLILPYGKYTVELLTYDTNAAKLESDKIVSFTLSADNNFQQVTFKITMLATSQITAHFDHLLPEGSRVSLKTAQDQLIPLEQSLYVPKAYGKTVQEGTYEVVVSLPKGYRIEGNTKVNTLPNEVHELSLRLVKVGDASDSTGDHKVMSKNNSQALTASATPT
B3: GAS57 double mutant D151A+S617A, His-tagged (protein)
chain: B2 chain with S584A
B4: GAS57 mutant S617A, His-tagged (protein)
chain: B2 chain with A118D, S584A

Biological target: interleukin-8 (IL-8; CXCL8)

| Protein | IL-8 cleavage, SDS-PAGE with silver staining | percentage of uncleaved IL-8, ELISA | uncleaved IL-8 after 24 h incubation, ELISA | IL-8 cleavage, SDS-PAGE with silver staining, 24 hours |
| --- | --- | --- | --- | --- |
| B1 | Wild-type GAS57 (lanes 2 and 3) released two bands: 8 kDa (active form) and 6 kDa (inactive cleaved IL-8) | wild-type GAS57 almost completely inactivated IL-8 after 8 hours, even at the lower concentration | – | – |
| B2 | the GAS57 D151A mutant released only one band, which corresponded to uncleaved IL-8, as in the control reaction (without enzyme) | no inactivation was observed for IL-8 treated with the mutant enzyme | the mutants release 100% of uncleaved IL-8 after 24 h incubation | – |
| B3 | – | – | the mutants release 100% of uncleaved IL-8 after 24 h incubation | unable to cleave IL-8, even at a 100-fold higher concentration than wild-type GAS57 |
| B4 | – | – | the mutants release 100% of uncleaved IL-8 after 24 h incubation | unable to cleave IL-8, even at a 100-fold higher concentration than wild-type GAS57 |

From US20130202609
